From the supplement of paper PMC10567573

B1: VAMP4 (parent)
chain: IMALVAAILLLVIIILIVMKYRT

Variants of: B1
Assay: protein stability index of a GFP-peptide fusion (GPS, HEK-293T) (PSI 1-6); higher = more stable
Conditions: c terminus: native
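Further: lentivirally expressed fusions sorted by FACS into six bins by GFP to DsRed ratio, PSI derived from sequencing read proportions per bin multiplied by bin number.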

Variant	protein stability index
IMALVAAILALVIIILIVMKYRT [L10A]	2.87
IMALVAAILSLVIIILIVMKYRT [L10S]	2.86
IMALVAAILDLVIIILIVMKYRT [L10D]	3.06
IMALVAAILMLVIIILIVMKYRT [L10M]	3.35
IMALVAAILKLVIIILIVMKYRT [L10K]	1.97
IMALVAAILQLVIIILIVMKYRT [L10Q]	2.67
IMALVAAILYLVIIILIVMKYRT [L10Y]	2.03
IMALVAAILRLVIIILIVMKYRT [L10R]	3.16
IMALVAAILVLVIIILIVMKYRT [L10V]	3.53
IMALVAAILILVIIILIVMKYRT [L10I]	3.35
IMALVAAILTLVIIILIVMKYRT [L10T]	2.87
IMALVAAILFLVIIILIVMKYRT [L10F]	3.43
IMALVAAILNLVIIILIVMKYRT [L10N]	2.48
IMALVAAILELVIIILIVMKYRT [L10E]	1.79
IMALVAAILWLVIIILIVMKYRT [L10W]	2.78
IMALVAAILGLVIIILIVMKYRT [L10G]	2.73
IMALVAAILCLVIIILIVMKYRT [L10C]	2.84
IMALVAAILHLVIIILIVMKYRT [L10H]	2.46
IMALVAAILPLVIIILIVMKYRT [L10P]	1.95
IMALVMAILLLVIIILIVMKYRT [A6M]	3.34
IMALVNAILLLVIIILIVMKYRT [A6N]	2.1
IMALVHAILLLVIIILIVMKYRT [A6H]	2.06
IMALVVAILLLVIIILIVMKYRT [A6V]	3.23
IMALVSAILLLVIIILIVMKYRT [A6S]	3.71
IMALVWAILLLVIIILIVMKYRT [A6W]	2.02

Variant	protein stability index
IMALVQAILLLVIIILIVMKYRT [A6Q]	2.37
IMALVIAILLLVIIILIVMKYRT [A6I]	3.61
IMALVDAILLLVIIILIVMKYRT [A6D]	2.8
IMALVPAILLLVIIILIVMKYRT [A6P]	2.54
IMALVGAILLLVIIILIVMKYRT [A6G]	3.2
IMALVFAILLLVIIILIVMKYRT [A6F]	3.75
IMALVLAILLLVIIILIVMKYRT [A6L]	3.39
IMALVYAILLLVIIILIVMKYRT [A6Y]	2.06
IMALVRAILLLVIIILIVMKYRT [A6R]	2.47
IMALVKAILLLVIIILIVMKYRT [A6K]	2.68
IMALVEAILLLVIIILIVMKYRT [A6E]	2.3
IMALVTAILLLVIIILIVMKYRT [A6T]	3.43
IMALVACILLLVIIILIVMKYRT [A7C]	3.29
IMALVADILLLVIIILIVMKYRT [A7D]	2.37
IMALVAIILLLVIIILIVMKYRT [A7I]	3.42
IMALVAVILLLVIIILIVMKYRT [A7V]	3.45
IMALVAKILLLVIIILIVMKYRT [A7K]	3.15
IMALVAWILLLVIIILIVMKYRT [A7W]	3.03
IMALVAGILLLVIIILIVMKYRT [A7G]	3.51
IMALVANILLLVIIILIVMKYRT [A7N]	2.02
IMALVAEILLLVIIILIVMKYRT [A7E]	1.62
IMALVAPILLLVIIILIVMKYRT [A7P]	2.75
IMALVAHILLLVIIILIVMKYRT [A7H]	1.84
IMALVARILLLVIIILIVMKYRT [A7R]	3.36
IMALVASILLLVIIILIVMKYRT [A7S]	3.81

Variant	protein stability index
IMALVAYILLLVIIILIVMKYRT [A7Y]	2.94
IMALVAMILLLVIIILIVMKYRT [A7M]	3.09
IMALVAQILLLVIIILIVMKYRT [A7Q]	1.91
IMALVAFILLLVIIILIVMKYRT [A7F]	3.74
IMALVATILLLVIIILIVMKYRT [A7T]	3.4
IMALVALILLLVIIILIVMKYRT [A7L]	3.58
IMALVAAILLAVIIILIVMKYRT [L11A]	3.51
IMALVAAILLCVIIILIVMKYRT [L11C]	3.27
IMALVAAILLDVIIILIVMKYRT [L11D]	2.28
IMALVAAIWLLVIIILIVMKYRT [L9W]	2.76
IMALVAAIELLVIIILIVMKYRT [L9E]	1.96
IMALVAAIKLLVIIILIVMKYRT [L9K]	2.5
IMALVAAISLLVIIILIVMKYRT [L9S]	3.05
IMALVAAIDLLVIIILIVMKYRT [L9D]	2.68
IMALVAAIQLLVIIILIVMKYRT [L9Q]	2.29
IMALVAAIALLVIIILIVMKYRT [L9A]	2.92
IMALVAAITLLVIIILIVMKYRT [L9T]	3.08
IMALVAAIFLLVIIILIVMKYRT [L9F]	3.56
IMALVAAIYLLVIIILIVMKYRT [L9Y]	2.12
IMALVAAIGLLVIIILIVMKYRT [L9G]	3.48
IMALVAAIPLLVIIILIVMKYRT [L9P]	2.43
IMALVAAIMLLVIIILIVMKYRT [L9M]	3.74
IMALVAAIRLLVIIILIVMKYRT [L9R]	1.95
IMALVAAICLLVIIILIVMKYRT [L9C]	3.33
IMALVAAINLLVIIILIVMKYRT [L9N]	2.4

Variant	protein stability index
IMALVAAIVLLVIIILIVMKYRT [L9V]	3.3
IMALVAAIILLVIIILIVMKYRT [L9I]	3.36
IMALVAAIHLLVIIILIVMKYRT [L9H]	2.52
IMALVAANLLLVIIILIVMKYRT [I8N]	2.48
IMALVAATLLLVIIILIVMKYRT [I8T]	3.25
IMALVAAALLLVIIILIVMKYRT [I8A]	3.34
IMALVAAQLLLVIIILIVMKYRT [I8Q]	2.01
IMALVAAMLLLVIIILIVMKYRT [I8M]	3.69
IMALVAAWLLLVIIILIVMKYRT [I8W]	2.47
IMALVAADLLLVIIILIVMKYRT [I8D]	3.13
IMALVAAKLLLVIIILIVMKYRT [I8K]	2.72
IMALVAACLLLVIIILIVMKYRT [I8C]	3.01
IMALVAAGLLLVIIILIVMKYRT [I8G]	3.37
IMALVAAVLLLVIIILIVMKYRT [I8V]	3.04
IMALVAALLLLVIIILIVMKYRT [I8L]	3.28
IMALVAAFLLLVIIILIVMKYRT [I8F]	3.4
IMALVAAELLLVIIILIVMKYRT [I8E]	2.68
IMALVAARLLLVIIILIVMKYRT [I8R]	2.72
IMALVAASLLLVIIILIVMKYRT [I8S]	3.25
IMALVAAPLLLVIIILIVMKYRT [I8P]	2.85
IMALVAAYLLLVIIILIVMKYRT [I8Y]	2.26
IMALVAAHLLLVIIILIVMKYRT [I8H]	2.14
